Source: US20070053905A1 (Chugai, published 2007)
Changes are numbered by the printed parent chain. One block for each binder: values may come before it.

Assays:
human PTHrP (1-34) [1] = target: T1, human PTHrP (1-34) (human); experiment: ELISA on plate coated with human PTHrP (1-34)
T1 construct: Synthetic peptide (Peninsula / Peptide Research Institute); coated on ELISA plates at 1 ug/ml; also called parathyroid hormone related peptide (1-34)
Protocol: The ELISA plate for antigen binding measurement was prepared as follows. Each well of a 96 well plate for ELISA was coated with 100 μl of human PTHrP(1-34) (Peptide Research Institute) adjusted to 1 μg/ml concentration by the coating buffer. […] After the plate was incubated at room temperature and washed with PBS-Tween20, 100 μl of alkaline phosphatase (TAGO) conjugated goat anti-man IgG antibody was added. After the plate was incubated at room temperature and washed with PBS-Tween20, 1 mg/ml of a substrate solution (Sigma104, p-nitrophenylphosphate, SIGMA) was added, and, next, 405 nm absorption was measured with a micro plate reader (Bio Rad).
The ELISA plate for antigen binding measurement was prepared as follows. Each well of a 96 well plate for ELISA was coated with 100 μl of human PTHrP(1-34) adjusted to 1 μg/ml concentration by the coating buffer. After blocking with 200 μl of the dilution buffer, the culture supernatant of the COS-7 cells in which hybrid antibody or humanized antibody was expressed or the purified hybrid antibody or the humanized antibody was stepwise diluted and added to each well. After the plate was incubated at room temperature and washed with PBS-Tween20, 100 μl of alkaline phosphatase (TAGO) conjugated goat anti-man IgG antibody was added. After the plate was incubated at room temperature and washed with PBS-Tween20, 1 mg/ml of a substrate solution (Sigma104, p-nitrophenylphosphate, SIGMA) was added, and 405 nm absorption was then measured on a micro plate reader (Bio Rad).

human PTHrP (1-34) [2] = target: T1, human PTHrP (1-34); experiment: solid phase RIA of hybridoma culture supernatant
Protocol: Screening of hybridomas was performed by measuring and selecting the existence of a PTHrP recognizing antibody by applying solid phase RIA method to the culture supernatant of the wells where growth was recognized in HAT culture medium.

binding result (human PTHrP (1-34) [1]): binds
B1: humanized #23-57-137-1 antibody with H chain version "a" and L chain version "s" (antibody, V domains shown)
VH: QVQLVESGGGVVQPGRSLRLSCAASGFTFSSYGMSWVRQAPGKGLEWVATISSGGSYTYYPDSVKGRFTISRDNSKNTLYLQMNSLRAEDTAVYYCARQTTMTYFAYWGQGTLVTVSS
VL: QLVLTQSPSASASLGASVKLTCTLSSQHSTYTIEWYQQQPEKGPKYVMDLKQDGSHSTGDGIPDRFSGSSSGAERYLTISSLQSEDEADYICGVGDTIKEQFVYVFGGGTKLTVLG
notes: Human Cγ1 (IgG1) and human lambda C domain; also called hMBC1HcDNA/pCOS1 + hMBC1Lsλ/pCOS1

binding result (human PTHrP (1-34) [1]): binds
B2: mouse FR1, 2/human FR3, 4 hybrid antibody (L chain m/hMBC1Ldλ) (antibody, V domains shown)
VH: B1 VH
VL: QLVLTQSSSASFSLGASAKLTCTLSSQHSTYTIEWYQQQPLKPPKYVMDLKQDGSHSTGDGIPDRFSGSSSGAERYLTISSLQSEDEADYICGVGDTIKEQFVYVFGGGTKLTVL
notes: Human Cγ1 and human lambda C domain; Expressed in COS-7 cells; also called hMBC1HcDNA/pCOS1 + m/hMBC1Ldλ/neo

binding result (human PTHrP (1-34) [1]): binds
B3: humanized #23-57-137-1 antibody with H chain version "a" and L chain version "t" (antibody, IgG1, V domains shown)
VH: B1 VH
VL: B1 VL with K45R
notes: Human Cγ1 (IgG1) and human lambda C domain; Expressed in COS-7 cells; also called hMBC1HcDNA/pCOS1 + hMBC1Ltλ/pCOS1

binding result (human PTHrP (1-34) [1]): binds
B4: humanized #23-57-137-1 antibody with H chain version "a" and L chain version "m" (antibody, IgG1, V domains shown)
VH: B1 VH
VL: B1 VL with K45R, V47L, I91Y
notes: Human Cγ1 (IgG1) and human lambda C domain; Expressed in COS-7 cells; also called hMBC1HcDNA/pCOS1 + hMBC1Lmλ/pCOS1

binding result (human PTHrP (1-34) [1]): binds
B5: antibody in which humanized H chain version "a" was combined with a chimera L chain (antibody, V domains shown)
VH: B1 VH
VL: QLVLTQSSSASFSLGASAKLTCTLSSQHSTYTIEWYQQQPLKPPKYVMDLKQDGSHSTGDGIPDRFSGSSSGADRYLSISNIQPEDEAMYICGVGDTIKEQFVYVFGGGTKVTVLG
notes: H chain has human Cγ1; also called humanized H chain version a + chimera L chain

binding result (human PTHrP (1-34) [1]): binds
B6: human FR1/mouse FR2, 3, 4 hybrid antibody (L chain hmmMBC1L(λ)) (antibody, V domains shown)
VH: B1 VH
VL: B2 VL with S8P, F12A, A18V, E74D, T78S, S81N, L82I, S84P, D89M, L112V
notes: Human Cγ1 and human lambda C domain; Expressed in COS-7 cells; also called hMBC1HcDNA/pCOS1 + hmmMBC1L(λ)/neo

binding result (human PTHrP (1-34) [1]): binds
B7: humanized #23-57-137-1 antibody with H chain version "a" and L chain version "l" (antibody, IgG1, V domains shown)
VH: B1 VH
VL: B1 VL with I91Y
notes: Human Cγ1 (IgG1) and human lambda C domain; Expressed in COS-7 cells; also called hMBC1HcDNA/pCOS1 + hMBC1Llλ/pCOS1

binding result (human PTHrP (1-34) [1]): binds
B8: humanized #23-57-137-1 antibody with H chain version "a" and L chain version "j" (antibody, IgG1, V domains shown)
VH: B1 VH
VL: B1 VL with V47L, I91Y
notes: Human Cγ1 (IgG1) and human lambda C domain; Expressed in COS-7 cells; also called hMBC1HcDNA/pCOS1 + hMBC1Ljλ/pCOS1

binding result (human PTHrP (1-34) [1]): binds
B9: humanized #23-57-137-1 antibody with H chain version "a" and L chain version "q" (antibody, IgG1, V domains shown)
VH: B1 VH
VL: B1 VL with V47L
notes: Human Cγ1 (IgG1) and human lambda C domain; also called hMBC1HcDNA + hMBC1Lqλ; FERM BP-5629 / FERM BP-5630

binding result (human PTHrP (1-34) [1]): binds
B10: mouse FR1, 2/human FR3, 4 hybrid antibody (L chain m/hMBC1Laλ) (antibody, V domains shown)
VH: B1 VH
VL: B2 VL with I91Y
notes: Human Cγ1 and human lambda C domain; Expressed in COS-7 cells; also called hMBC1HcDNA/pCOS1 + m/hMBC1Laλ/neo

binding result (human PTHrP (1-34) [1]): binds
B11: humanized #23-57-137-1 antibody with H chain version "a" and L chain version "r" (antibody, V domains shown)
VH: B1 VH
VL: B1 VL with K45R, V47L
notes: Human Cγ1 (IgG1) and human lambda C domain; also called hMBC1HcDNA + hMBC1Lrλ

binding result (human PTHrP (1-34) [1]): binds
B12: humanized #23-57-137-1 antibody with H chain version "a" and L chain version "o" (antibody, IgG1, V domains shown)
VH: B1 VH
VL: B1 VL with K45R, I91Y
notes: Human Cγ1 (IgG1) and human lambda C domain; Expressed in COS-7 cells; also called hMBC1HcDNA/pCOS1 + hMBC1Loλ/pCOS1

binding result (human PTHrP (1-34) [2]): binds
B13: mouse monoclonal antibody #23-57-137-1 (antibody, V domains shown)
VH: EVQLVESGGDLVKPGGSLKLSCAASGFTFSSYGMSWIRQTPDKRLEWVATISSGGSYTYYPDSVKGRFTISRDNAKNTLYLQMSSLKSEDTAMFYCARQTTMTYFAYWGQGTLVTVSA
VL: B5 VL
notes: Mouse hybridoma antibody; The L chain is a mouse lambda chain; the H chain was cloned with a mouse gamma-1 primer (MHC-G1); also called anti-PTHrP MoAb

binding result (human PTHrP (1-34) [1]): binds
B14: chimera #23-57-137-1 antibody with human L chain lambda chain C domain (antibody, IgG1, V domains shown)
VH: B13 VH
VL: B5 VL
notes: Expressed in COS-7 cells; also called chimeric antibody; MBC1HcDNA/pCOS1 + MBC1L(λ)/neo

binding result (human PTHrP (1-34) [1]): binds
B15: chimera #23-57-137-1 antibody with human L chain kappa chain C domain (antibody, IgG1, V domains shown)
VH: B13 VH
VL: B5 VL
notes: Mouse V domains joined to human Cγ1 (IgG1) and to the human kappa C domain (from plasmid HEF-PM1k-gk); Expressed in COS-7 cells; also called chimeric antibody; MBC1HcDNA/pCOS1 + MBC1L(κ)/neo
